The supplement of paper PMC10567573

B1: FCHO1 (parent)
chain: HLELTRKLQDLIKDVLRYGEEQLK

Variants of: B1
Experiment: protein stability index of a GFP-peptide fusion (GPS, HEK-293T) (PSI 1-6); higher = more stable
Conditions: c terminus: a fixed tail appended
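Also: lentivirally expressed fusions sorted by FACS into six bins by GFP to DsRed ratio, PSI derived from sequencing read proportions per bin multiplied by bin number.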

Row | Variant | protein stability index
1 | HLELTRKLQDLIKDVLRYCEEQLK | 1.4
2 | HLELTRKLQDLIKDVLRYIEEQLK | 2.01
3 | HLELTRKLQDLIKDVLRYLEEQLK | 2.03
4 | HLELTRKLQDLIKDVLRYMEEQLK | 1.97
5 | HLELTRKLQDLIKDVLRYEEEQLK | 1.88
6 | HLELTRKLQDLIKDVLRYQEEQLK | 1.59
7 | HLELTRKLQDLIKDVLRYREEQLK | 2.53
8 | HLELTRKLQDLIKMVLRYGEEQLK | 1.3
9 | HLELTRKLQDLIKLVLRYGEEQLK | 1.99
10 | HLELTRKLQDLIKFVLRYGEEQLK | 1.77
11 | HLELTRKLQDLIKIVLRYGEEQLK | 2.7
12 | HLELTRKLQDLIKRVLRYGEEQLK | 3.44
13 | HLELTRKLQDLIKYVLRYGEEQLK | 2.66
14 | HLELTRKLQDLIKNVLRYGEEQLK | 2.76
15 | HLELTRKLQDLIKEVLRYGEEQLK | 2.9
16 | ELELTRKLQDLIKDVLRYGEEQLK | 2.81
17 | PLELTRKLQDLIKDVLRYGEEQLK | 1.79
18 | YLELTRKLQDLIKDVLRYGEEQLK | 2.02
19 | GLELTRKLQDLIKDVLRYGEEQLK | 2.03
20 | ILELTRKLQDLIKDVLRYGEEQLK | 1.74
21 | VLELTRKLQDLIKDVLRYGEEQLK | 1.31
22 | WLELTRKLQDLIKDVLRYGEEQLK | 1.9
23 | HLELTRKLQDLIKDVLRKGEEQLK | 3.41
24 | HLELTRKLQDLIKDVLRMGEEQLK | 2.65

Row | Variant | protein stability index
25 | HLELTRKLQDLIKDVLRLGEEQLK | 2.53
26 | HLELTRKLQDLIKDVLRVGEEQLK | 3.06
27 | HLELTRKLQDLIKDVLRHGEEQLK | 2.12
28 | HLELTRKLQDLIKDVLRDGEEQLK | 2.63
29 | HLELTRKLQDLIKDVLRFGEEQLK | 2.25
30 | HLELTRKLQDLIKDVLRAGEEQLK | 2.74
31 | HLELTRKLQDLIKDVLRSGEEQLK | 1.82
32 | HLELTRKLQDLIHDVLRYGEEQLK | 1.8
33 | HLELTRKLQDLIWDVLRYGEEQLK | 2.16
34 | HLELTRKLQDLICDVLRYGEEQLK | 2.28
35 | HLELTRKLQDLIRDVLRYGEEQLK | 2.3
36 | HLELTRKLQDLIADVLRYGEEQLK | 2.14
37 | HLELTRKLQDLIFDVLRYGEEQLK | 1.59
38 | HLELTRKLQDLIIDVLRYGEEQLK | 4.84
39 | HLELTRKLQDLIYDVLRYGEEQLK | 1.33
40 | HLTLTRKLQDLIKDVLRYGEEQLK | 3.33
41 | HLYLTRKLQDLIKDVLRYGEEQLK | 2.52
42 | HLILTRKLQDLIKDVLRYGEEQLK | 2.88
43 | HLLLTRKLQDLIKDVLRYGEEQLK | 2.7
44 | HLRLTRKLQDLIKDVLRYGEEQLK | 2.74
45 | HLSLTRKLQDLIKDVLRYGEEQLK | 3.71
46 | HLCLTRKLQDLIKDVLRYGEEQLK | 2.31
47 | HLALTRKLQDLIKDVLRYGEEQLK | 2.96
48 | HLFLTRKLQDLIKDVLRYGEEQLK | 2.54

Row | Variant | protein stability index
49 | HLQLTRKLQDLIKDVLRYGEEQLK | 3.73
50 | HLKLTRKLQDLIKDVLRYGEEQLK | 2.17
51 | HLNLTRKLQDLIKDVLRYGEEQLK | 3.5
52 | HLVLTRKLQDLIKDVLRYGEEQLK | 2.56
53 | HLENTRKLQDLIKDVLRYGEEQLK | 1.75
54 | HLEVTRKLQDLIKDVLRYGEEQLK | 3.17
55 | HLETTRKLQDLIKDVLRYGEEQLK | 1.55
56 | HLEMTRKLQDLIKDVLRYGEEQLK | 2.21
57 | HLEITRKLQDLIKDVLRYGEEQLK | 2.12
58 | HLEQTRKLQDLIKDVLRYGEEQLK | 2.58
59 | HLEDTRKLQDLIKDVLRYGEEQLK | 2.01
60 | HLEGTRKLQDLIKDVLRYGEEQLK | 2.02
61 | HLELTRKLQDLIKDVLRYGCEQLK | 2.57
62 | HLELTRKLQDLIKDVLRYGKEQLK | 1.7
63 | HLELTRKLQDLIKDVLRYGGEQLK | 2.66
64 | HLELTRKLQDLIKDVLRYGIEQLK | 3.44
65 | HLELTRKLQDLIKDVLRYGWEQLK | 3.32
66 | HLELTRKLQDLIKDVLRYGMEQLK | 2.81
67 | HLELTRKLQDLIKDVLRYGYEQLK | 2.65
68 | HLELTRKLQDLIKDVLRYGAEQLK | 2.69
69 | HLELTRKLQDLIKDVLRYGDEQLK | 3.65
70 | HLELTRKLQDLIKDVLRYGSEQLK | 3.54
71 | HLELTRKLQDLIKDVLRYGVEQLK | 3.74
72 | HYELTRKLQDLIKDVLRYGEEQLK | 2.04

Row | Variant | protein stability index
73 | HDELTRKLQDLIKDVLRYGEEQLK | 2.92
74 | HWELTRKLQDLIKDVLRYGEEQLK | 1.41
75 | HIELTRKLQDLIKDVLRYGEEQLK | 1.87
76 | HCELTRKLQDLIKDVLRYGEEQLK | 3.33
77 | HVELTRKLQDLIKDVLRYGEEQLK | 3.29
78 | HGELTRKLQDLIKDVLRYGEEQLK | 3.28
79 | HLELTRKLQCLIKDVLRYGEEQLK | 3.93
80 | HLELTRKLQRLIKDVLRYGEEQLK | 2.58
81 | HLELTRKLQKLIKDVLRYGEEQLK | 2.72
82 | HLELTRKLQLLIKDVLRYGEEQLK | 1.44
83 | HLELTRKLQYLIKDVLRYGEEQLK | 4.45
84 | HLELTRKLQGLIKDVLRYGEEQLK | 3.66
85 | HLELTRKLQVLIKDVLRYGEEQLK | 4.56
86 | HLELTRKLQDLIKDVLRYGEEMLK | 1.91
87 | HLELTRKLQDLIKDVLRYGEEELK | 2.37
88 | HLELTRKLQDLIKDVLRYGEECLK | 1.59
89 | HLELTRKLQDLIKDVLRYGEEDLK | 2.43
90 | HLELTRKLQDLIKDVLRYGEEHLK | 2.41
91 | HLELTRKLQDLIKDVLRYGEEALK | 1.68
92 | HLELTRKLQDLIKDVLRYGEEYLK | 3.18
93 | HLELTRKLGDLIKDVLRYGEEQLK | 1.31
94 | HLELTRKLPDLIKDVLRYGEEQLK | 2.81
95 | HLELTRKLMDLIKDVLRYGEEQLK | 3.55
96 | HLELTRKLIDLIKDVLRYGEEQLK | 1.22

Row | Variant | protein stability index
97 | HLELTRKLADLIKDVLRYGEEQLK | 2.81
98 | HLELTRKLDDLIKDVLRYGEEQLK | 1.24
99 | HLELTRKLWDLIKDVLRYGEEQLK | 2.68
100 | HLELTRKLKDLIKDVLRYGEEQLK | 3.73
101 | HLELTRKLFDLIKDVLRYGEEQLK | 2.25
102 | HLELTRKLQDLIKDVFRYGEEQLK | 2.77
103 | HLELTRKLQDLIKDVNRYGEEQLK | 2.82
104 | HLELTRKLQDLIKDVRRYGEEQLK | 1.69
105 | HLELTRKLQDLIKDVWRYGEEQLK | 3.05
106 | HLELTRKLQDLIKDVHRYGEEQLK | 2.73
107 | HLELTRKLQDLIKDVTRYGEEQLK | 2.25
108 | HLELTRKLQDLIKDVKRYGEEQLK | 1.44
109 | HLELTRKLQDLIKDVVRYGEEQLK | 4.13
110 | HLELTRKLQDLIKDVPRYGEEQLK | 2.9
111 | HLELTRKLQDLIKDVARYGEEQLK | 1.04
112 | HLELTRKLQDLIKDVCRYGEEQLK | 2.91
113 | HLELTRKLQDLIKDVMRYGEEQLK | 2.69
114 | HLELTRKLQDLIKDVSRYGEEQLK | 2.09
115 | HLELTRKLQDLIKDVLRYGEIQLK | 3.67
116 | HLELTRKLQDLIKDVLRYGEHQLK | 2.76
117 | HLELTRKLQDLIKDVLRYGEMQLK | 3.24
118 | HLELTRKLQDLIKDVLRYGENQLK | 3.29
119 | HLELTRKLQDLIKDVLRYGEDQLK | 1.81
120 | HLELTRKLQDLFKDVLRYGEEQLK | 2.57

Row | Variant | protein stability index
121 | HLELTRKLQDLRKDVLRYGEEQLK | 3.39
122 | HLELTRKLQDLCKDVLRYGEEQLK | 1.73
123 | HLELTRKLQDLQKDVLRYGEEQLK | 3.4
124 | HLELTRKLQDLNKDVLRYGEEQLK | 4.18
125 | HLELTRKLQDLTKDVLRYGEEQLK | 2.31
126 | HLELTRKLQDLSKDVLRYGEEQLK | 2.51
127 | HLELTRKLQDLHKDVLRYGEEQLK | 3.05
128 | HLELTRKLQDLEKDVLRYGEEQLK | 3.82
129 | HLELTRKLQDLIKDVLRYGEEQLQ | 2.48
130 | HLELTRKLQDLIKDVLRYGEEQLH | 3.16
131 | HLELTRKLQDLIKDVLRYGEEQLP | 2.02
132 | HLELTRKLQDLIKDVLRYGEEQLM | 2.79
133 | HLELTRKLQDLIKDVLRYGEEQLI | 2.67
134 | HLELTRKLQDLIKDVLRYGEEQLG | 1.01
135 | HLELTRFLQDLIKDVLRYGEEQLK | 2.12
136 | HLELTRQLQDLIKDVLRYGEEQLK | 2.28
137 | HLELTRNLQDLIKDVLRYGEEQLK | 2.03
138 | HLELTRPLQDLIKDVLRYGEEQLK | 1.51
139 | HLELTRALQDLIKDVLRYGEEQLK | 2.33
140 | HLELTRELQDLIKDVLRYGEEQLK | 2.28
141 | HLELTRTLQDLIKDVLRYGEEQLK | 2.96
142 | HLELTRKNQDLIKDVLRYGEEQLK | 3.85
143 | HLELTRKPQDLIKDVLRYGEEQLK | 2.71
144 | HLELTRKRQDLIKDVLRYGEEQLK | 3.39

Row | Variant | protein stability index
145 | HLELTRKWQDLIKDVLRYGEEQLK | 1.36
146 | HLELTRKDQDLIKDVLRYGEEQLK | 4.04
147 | HLELTEKLQDLIKDVLRYGEEQLK | 1.85
148 | HLELTDKLQDLIKDVLRYGEEQLK | 1.84
149 | HLELTWKLQDLIKDVLRYGEEQLK | 2.34
150 | HLELTQKLQDLIKDVLRYGEEQLK | 1.86
151 | HLELTLKLQDLIKDVLRYGEEQLK | 1.29
152 | HLELTSKLQDLIKDVLRYGEEQLK | 2.4
153 | HLELTVKLQDLIKDVLRYGEEQLK | 1.69
154 | HLELTAKLQDLIKDVLRYGEEQLK | 1.45
155 | HLELTRKLQDHIKDVLRYGEEQLK | 2.51
156 | HLELTRKLQDMIKDVLRYGEEQLK | 3.68
157 | HLELTRKLQDQIKDVLRYGEEQLK | 2.47
158 | HLELTRKLQDCIKDVLRYGEEQLK | 1.67
159 | HLELTRKLQDFIKDVLRYGEEQLK | 3.54
160 | HLELTRKLQDGIKDVLRYGEEQLK | 2.38
161 | HLELTRKLQDNIKDVLRYGEEQLK | 2.56
162 | HLELTRKLQDKIKDVLRYGEEQLK | 2.38
163 | HLELTRKLQDRIKDVLRYGEEQLK | 1.2
164 | HLELTRKLQDEIKDVLRYGEEQLK | 4.22
165 | HLELTRKLQDTIKDVLRYGEEQLK | 1.63
166 | HLELTRKLQDIIKDVLRYGEEQLK | 3.17
167 | HLELSRKLQDLIKDVLRYGEEQLK | 3.79
168 | HLELGRKLQDLIKDVLRYGEEQLK | 2.48

Row | Variant | protein stability index
169 | HLELVRKLQDLIKDVLRYGEEQLK | 2.63
170 | HLELTRKLQDLIKDDLRYGEEQLK | 4.22
171 | HLELTRKLQDLIKDALRYGEEQLK | 2.98
172 | HLELTRKLQDLIKDGLRYGEEQLK | 2.15
173 | HLELTRKLQDLIKDFLRYGEEQLK | 2.12
174 | HLELTRKLQDLIKDSLRYGEEQLK | 1.88
175 | HLELTRKLQDLIKDWLRYGEEQLK | 3.69
176 | HLELTRKLQDLIKDVLFYGEEQLK | 3.06
177 | HLELTRKLQDLIKDVLPYGEEQLK | 2.95
178 | HLELTRKLQDLIKDVLAYGEEQLK | 1.97
179 | HLELTRKLQDLIKDVLCYGEEQLK | 1.83
180 | HLELTRKLQDLIKDVLQYGEEQLK | 2.26
181 | HLELTRKLQDLIKDVLVYGEEQLK | 2.61
182 | HLELTRKLQDLIKDVLYYGEEQLK | 2.08
183 | HLELTRKLQDLIKDVLRYGEEQSK | 2.31
184 | HLELTRKLQDLIKDVLRYGEEQQK | 2.06
185 | HLELTRKLQDLIKDVLRYGEEQFK | 3.59
186 | HLELTRKLQDLIKDVLRYGEEQRK | 2.44
187 | HLELTRKLQDLIKDVLRYGEEQGK | 2.57
188 | HLELTRKLQDLIKDVLRYGEEQCK | 1.09
